Common to all, as to format: biochemical
Common to all, as to settings: CPO Rz=1.03

Data set [1] can be described thus: Standard MCD assay, halogenation activity of CPO. How it is done:
(§1) The halogenation activity of CPO used in this study was 4232 U·mL^−1 based on the standard MCD assay (Hager et al., 1966). The aromatic hydroxylation activity (3563 U·mL-1) of the enzyme was determined by monitoring the hydroxylation of naphthalene into I-naphthol (Kluge et al., 2007). The classic peroxidase activity of the enzyme determined using ABTS as the substrate was 3071 U·mL^−1 (Manoj et al., 2008).

A short description of data set [2]: Aromatic hydroxylation activity of CPO, naphthalene hydroxylation. How it is done: as §1
Data set [3] can be described thus: Classic peroxidase activity of CPO, ABTS substrate. How it is done:
as §1

B1: CPO: heme-containing glycoprotein secreted by the fungus Caldariomyces fumago (protein, UniProt P04963 21-319, looked up)
Chloroperoxidase: QEPGSGIGYPYDNNTLPYVAPGPTDSRAPCPALNALANHGYIPHDGRAISRETLQNAFLNHMGIANSVIELALTNAFVVCEYVTGSDCGDSLVNLTLLAEPHAFEHDHSFSRKDYKQGVANSNDFIDNRNFDAETFQTSLDVVAGKTHFDYADMNEIRLQRESLSNELDFPGWFTESKPIQNVESGFIFALVSDFNLPDNDENPLVRIDWWKYWFTNESFPYHLGWHPPSPAREIEFVTSASSAVLAASVTSTPSSLPSGAIGPGAEAVPLSFASTMTPFLLATNAPYYAQDPTLGPND
On to B1, for which, in data set [1], the halogenation activity is listed as 4232 U·mL^−1. In data set [2], this molecule had an aromatic hydroxylation activity of 3563 U·mL-1. The classic peroxidase activity in data set [3] was 3071 U·mL^−1.

(Values after patent US10301203B2, “Chloroperoxidase-catalyzed degradation of pharmaceutical pollutants in wastewater” (THE FLORIDA INTERNATIONAL UNIVERSITY BOARD OF TRUSTEES, priority 2017, dated 2019).)
